Laboratory results published in the supplement of paper PMC12042874.
± gives the uncertainty stated by the source.

Test: amyloid nucleation score (Sup35N fusion, yeast selection) (log enrichment); library NNK3; higher = more nucleation; inactive = no reads after selection
Outline: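 Libraries of peptides of 20 random codons fused to Sup35N were expressed in psi-negative yeast and induced 24 hours with 100 μM copper sulfate. Selection was 7 days at 30°C on medium lacking adenine and uracil, and plasmid inserts were Illumina-sequenced before and after selection. Nucleation score is the DiMSum log enrichment of output over input reads, centred on the mode score of non-aggregating sequences, and sequences with under 100 input reads were left out.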

Question: With LVVSVRTYPTGCCPYKMLNQ as the substance, how does the amyloid nucleation score read?
Answer: inactive

Question: With LVYLSASFVW as the substance, how does the amyloid nucleation score read?
Answer: 0.108 ± 0.67

Question: Which amyloid nucleation score does the source give for LVYNQVVHRFLTLVFLSYMS here?
Answer: inactive

Question: Which amyloid nucleation score does the source give for LVYNTDQSTRYAMTDYDADL here?
Answer: inactive

Question: With LWDALDKDSESVIDMGQNEG as the substance, how does the amyloid nucleation score read?
Answer: inactive

Question: With LWDRVNCFYFRDEGDELEER as the substance, how does the amyloid nucleation score read?
Answer: inactive

Question: Which amyloid nucleation score does the source give for LWEVRSEPDPDSSNKLLSRE here?
Answer: 0.136 ± 0.39

Question: Which amyloid nucleation score does the source give for LWFPVEGGYPPSDVKQKHIS here?
Answer: 0.086 ± 0.31

Question: With LWGKNWIDVAECIVCLPQAS as the substance, how does the amyloid nucleation score read?
Answer: inactive

Question: Which amyloid nucleation score does the source give for LWLFIAY here?
Answer: inactive

Question: For LWNVLHDNSHCSLGSTPLGQ, which amyloid nucleation score is on record?
Answer: inactive

Question: For LWRIILWPFVTWSDMMFFQF, which amyloid nucleation score is on record?
Answer: -0.076 ± 0.98

Question: With LWSWDDIHPFCLILLLTRCP as the substance, how does the amyloid nucleation score read?
Answer: inactive

Question: With LWWCTLYSILYGTLSTYSCS as the substance, how does the amyloid nucleation score read?
Answer: inactive

Question: For LWYFRFNFTAYNYFLWYDTS, which amyloid nucleation score is on record?
Answer: inactive

Question: For LYDTDSCLSSYCSPFRHPRY, which amyloid nucleation score is on record?
Answer: inactive

Question: Which amyloid nucleation score does the source give for LYFNRRWWPMRWVRDSPRPS here?
Answer: 0.024 ± 0.96

Question: With LYGISL as the substance, how does the amyloid nucleation score read?
Answer: inactive

Question: With LYGTFVNSCQRFNLLDV as the substance, how does the amyloid nucleation score read?
Answer: inactive

Question: With LYLNEYELTLEAKRDYMNMR as the substance, how does the amyloid nucleation score read?
Answer: inactive

Question: Which amyloid nucleation score does the source give for LYLVKVD here?
Answer: inactive

Question: With LYLYI as the substance, how does the amyloid nucleation score read?
Answer: inactive

Question: For LYMNATLSYCGTYCMVTQMV, which amyloid nucleation score is on record?
Answer: inactive

Question: With LYMVSYG as the substance, how does the amyloid nucleation score read?
Answer: inactive

Question: For LYNVMGLALASLAISNLRDK, which amyloid nucleation score is on record?
Answer: inactive

Question: Which amyloid nucleation score does the source give for LYNVYGSRA here?
Answer: inactive

Question: Which amyloid nucleation score does the source give for LYRCDDGCSIRTVRDYWWVS here?
Answer: inactive

Question: For LYRVVSLSYAVCLILSRCFT, which amyloid nucleation score is on record?
Answer: inactive

Question: Which amyloid nucleation score does the source give for LYTNLTTVDLHCVKNA here?
Answer: inactive

Question: With LYVVCKLSHRPHNAWEKRVP as the substance, how does the amyloid nucleation score read?
Answer: 0.315 ± 0.29

Question: With MACKLSTRKSSNWGKHLLCY as the substance, how does the amyloid nucleation score read?
Answer: inactive

Question: For MAHAFDTR, which amyloid nucleation score is on record?
Answer: inactive

Question: With MAMDCLISTALVLLVKYASV as the substance, how does the amyloid nucleation score read?
Answer: inactive

Question: With MASIVFFCMPSETNFVV as the substance, how does the amyloid nucleation score read?
Answer: inactive

Question: Which amyloid nucleation score does the source give for MCNFCQLFFTLLITSLFKLG here?
Answer: 0.807 ± 0.18

Question: For MCYALMRTTWCGKLKIVLSG, which amyloid nucleation score is on record?
Answer: inactive

Question: With MCYVVNAHGVASQ as the substance, how does the amyloid nucleation score read?
Answer: inactive

Question: Which amyloid nucleation score does the source give for MDDFLYAVPMWELWKVLRDE here?
Answer: inactive

Question: Which amyloid nucleation score does the source give for MDITWIKVVHNIHQTVRSKF here?
Answer: 1 ± 0.22

Question: With MDRIYLHISVEVSASFMSDA as the substance, how does the amyloid nucleation score read?
Answer: inactive

Question: For MEGFSMIIRDAWKFTCVVEW, which amyloid nucleation score is on record?
Answer: inactive

Question: For MESDCQRDHNFIRIKIKIGE, which amyloid nucleation score is on record?
Answer: 1.65 ± 0.09

Question: With MEVKNSRLDSVAKYQSISFL as the substance, how does the amyloid nucleation score read?
Answer: inactive

Question: Which amyloid nucleation score does the source give for MFLGNVMTILIEMGFQKALT here?
Answer: 0.93 ± 0.17

Question: Which amyloid nucleation score does the source give for MFLLMNKV here?
Answer: inactive

Question: Which amyloid nucleation score does the source give for MFLQSGDFPM here?
Answer: inactive

Question: With MFRHVWVTNEVLSCGYIVTG as the substance, how does the amyloid nucleation score read?
Answer: inactive

Question: For MFRVMSSVKLLS, which amyloid nucleation score is on record?
Answer: -0.754 ± 0.96

Question: With MFSLNVYMGDTIVVHQGFTD as the substance, how does the amyloid nucleation score read?
Answer: 2.77 ± 0.058

Question: With MFSPQSNRFSSFGNNSITGH as the substance, how does the amyloid nucleation score read?
Answer: inactive

Question: With MFYVVLSYK as the substance, how does the amyloid nucleation score read?
Answer: 0.071 ± 0.38

Question: For MGIQKTDRWRLWYYYWMREN, which amyloid nucleation score is on record?
Answer: inactive

Question: With MGKETRVA as the substance, how does the amyloid nucleation score read?
Answer: inactive

Question: Which amyloid nucleation score does the source give for MGKTRLADLRVYRTVWLFSR here?
Answer: inactive

Question: With MGNRNDSNLTRCWESTLVVK as the substance, how does the amyloid nucleation score read?
Answer: inactive

Question: Which amyloid nucleation score does the source give for MGQAEGFLNGSSEQVEPTFA here?
Answer: inactive

Question: With MGVICWYLRACNPQPGSNCK as the substance, how does the amyloid nucleation score read?
Answer: inactive

Question: For MGWALIGSQSPYVCHNMFVR, which amyloid nucleation score is on record?
Answer: inactive

Question: Which amyloid nucleation score does the source give for MHAMNVMAGVRLALVYVRSN here?
Answer: inactive

Question: With MHANLLGVQSVLLDRVEVMW as the substance, how does the amyloid nucleation score read?
Answer: inactive

Question: With MHLEYGVFIDARATYML as the substance, how does the amyloid nucleation score read?
Answer: 1.49 ± 0.12

Question: With MHLVYQDILSYIAWSRVPLR as the substance, how does the amyloid nucleation score read?
Answer: inactive

Question: Which amyloid nucleation score does the source give for MIHAFGFLMMCLVQSYLELF here?
Answer: inactive

Question: For MILLLGLDRKHSSGESKALI, which amyloid nucleation score is on record?
Answer: inactive
